Assay results as given in patent US20240200091A1, “USE OF PROTOPORPHYRINOGEN OXIDASE” (BEIJING DABEINONG BIOTECHNOLOGY CO., LTD., priority 2021, published 2024).

Key:
Type in all cases: in vivo
[1] = test system: Arabidopsis thaliana T1 plants; assay: saflufenacil tolerance of transgenic Arabidopsis thaliana T1 plants (spray, grade of pesticide damage); settings: 7 DAT, number of plants of 24 per genotype, grades
Procedure, shortened: (§1)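 Graded 0–3 by injured-to-total leaf area 7 days after spraying, with grades 0–1 rated highly resistant. Plants (24 per genotype, 18 days old) received water or 1× and 4× field rates (sulfentrazone 1× and 2×, 450/900 g ai/ha) of each herbicide.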

[2] = test system: transgenic soybean plants; assay: oxyfluorfen tolerance of transgenic soybean plants (spray, grade of pesticide damage); settings: for The grade of pesticide damage/plant: grade 0 / The grade of pesticide damage/plant: grade 1 / The grade of pesticide damage/plant: grade 2 / The grade of pesticide damage/plant: grade 3: 7 DAT, number of plants of 16 per genotype, grades; for tolerance to oxyfluorfen: soybean
[3] = test system: transgenic soybean plants; assay: flumioxazin tolerance of transgenic soybean plants (spray, grade of pesticide damage); settings: for The grade of pesticide damage/plant: grade 0 / The grade of pesticide damage/plant: grade 1 / The grade of pesticide damage/plant: grade 2 / The grade of pesticide damage/plant: grade 3: 7 DAT, number of plants of 16 per genotype, grades
[4] = test system: Arabidopsis thaliana T1 plants; assay: sulfentrazone tolerance of transgenic Arabidopsis thaliana T1 plants (spray, grade of pesticide damage); settings: 7 DAT, number of plants of 24 per genotype, grades
Procedure, shortened: as §1

[5] = test system: Arabidopsis thaliana T1 plants; assay: oxyfluorfen tolerance of transgenic Arabidopsis thaliana T1 plants (spray, grade of pesticide damage); settings: 7 DAT, number of plants of 24 per genotype, grades
Procedure, shortened: as §1

[6] = test system: transgenic soybean plants; assay: saflufenacil tolerance of transgenic soybean plants (spray, grade of pesticide damage); design: key to damage levels rated at grade: grade 0 means that the growth status of plants is essentially consistent with those sprayed with the blank solvent (water); grade 1 means that the average of the damage levels of plants is less than 10%; grade 2 means that the average of the damage levels of plants is greater than 100%; grade 3 means that the average of the damage levels of plants is 100%; settings: for The grade of pesticide damage/plant: grade 0 / The grade of pesticide damage/plant: grade 1 / The grade of pesticide damage/plant: grade 2 / The grade of pesticide damage/plant: grade 3: 7 DAT, number of plants of 16 per genotype, grades
[7] = test system: Arabidopsis thaliana T1 plants; assay: flumioxazin tolerance of transgenic Arabidopsis thaliana T1 plants (spray, grade of pesticide damage); settings: 7 DAT, number of plants of 24 per genotype, grades
Procedure, shortened: as §1

B1: PPO1A: nucleotide sequence encoding microbial protoporphyrinogen oxidase PPO1 (SEQ ID NO:1), Arabidopsis thaliana/soybean common codon usage bias (nucleic acid)
DNA: ATGAAGGCTTTGGTACTCTACAGCACAAGAGACGGTCAGACACACGCGATCGCGTCGTACATTGCTAATTGCATGAAAGAGAAGTATGAGTGTGACGTTATTGATCTTCTTCATGCTCAGCATGTTACATTATCACGGTATGATAAGGTTCTTGTAGGAGCTTCTATACGATATGGACATTTCAATGCTGTGTTGGACAAATTTGTGAAGCAAAACATCCAACAACTAAACTCAATGCCTTCTGCTTTCTTTGCTGTTAATTTGACTGCCAGGAAACCTGAGAAACGTACTCCTCAGACCAATTCTTATGTTAGGAAGTTTCTTCTGGGGACACCATGGAAACCAGCAATGTGTGGCGTGTTTGCAGGAGCATTGAGGTATCCACGTTACAGATGGGTTGATAAAGTGATGATTCAGCTCATAATGAGAATGACTGGTGGTGAAACAGATACAAGCAAAGAAGTTGAGTATACTGATTGGGAACAAGTCAAAAAGTTCGCAGAAGATTTTGGAAAGCTAAGTTACAAGAAAACCCTCTGA
modifications: PPO1A Nucleotide Sequence
24 plant: The grade of pesticide damage/plant: grade 0 ([1]; saflufenacil 25 g ai/ha (1×)) | The grade of pesticide damage/plant: grade 0 ([5]; oxyfluorfen 180 g ai/ha (1×)) | The grade of pesticide damage/plant: grade 0 ([7]; flumioxazin 60 g ai/ha (1×))
20: The grade of pesticide: grade 0 ([4]; sulfentrazone 900 g ai/ha (2×))
23 plant: The grade of pesticide damage/plant: grade 0 ([7]; flumioxazin 240 g ai/ha (4×))
16 plant: The grade of pesticide damage/plant: grade 0 ([2]; oxyfluorfen 360 g ai/ha (2×)) | The grade of pesticide damage/plant: grade 0 ([2]; oxyfluorfen 720 g ai/ha (4×)) | The grade of pesticide damage/plant: grade 0 ([3]; flumioxazin 120 g ai/ha (2×)) | The grade of pesticide damage/plant: grade 0 ([3]; flumioxazin 240 g ai/ha (4×)) | The grade of pesticide damage/plant: grade 0 ([6]; saflufenacil 50 g ai/ha (2×)) | The grade of pesticide damage/plant: grade 0 ([6]; saflufenacil 100 g ai/ha (4×))
0: The grade of pesticide: grade 1 ([4]; sulfentrazone 450 g ai/ha (1×)) | The grade of pesticide: grade 2 ([4]; sulfentrazone 450 g ai/ha (1×)) | The grade of pesticide: grade 3 ([4]; sulfentrazone 450 g ai/ha (1×)) | The grade of pesticide: grade 2 ([4]; sulfentrazone 900 g ai/ha (2×)) | The grade of pesticide: grade 3 ([4]; sulfentrazone 900 g ai/ha (2×)) | damage levels rated at grade ([6]; soybean, saflufenacil at two-fold field concentration (50 g ai/ha))
20 plant: The grade of pesticide damage/plant: grade 1 ([1]; saflufenacil 100 g ai/ha (4×))
4 plant: The grade of pesticide damage/plant: grade 0 ([1]; saflufenacil 100 g ai/ha (4×))
24: The grade of pesticide: grade 0 ([4]; sulfentrazone 450 g ai/ha (1×))
1 plant: The grade of pesticide damage/plant: grade 1 ([7]; flumioxazin 240 g ai/ha (4×))
0 plant: The grade of pesticide damage/plant: grade 1 ([1]; saflufenacil 25 g ai/ha (1×)) | The grade of pesticide damage/plant: grade 2 ([1]; saflufenacil 25 g ai/ha (1×)) | The grade of pesticide damage/plant: grade 3 ([1]; saflufenacil 25 g ai/ha (1×)) | The grade of pesticide damage/plant: grade 2 ([1]; saflufenacil 100 g ai/ha (4×)) | The grade of pesticide damage/plant: grade 3 ([1]; saflufenacil 100 g ai/ha (4×)) | The grade of pesticide damage/plant: grade 1 ([2]; oxyfluorfen 360 g ai/ha (2×)) | The grade of pesticide damage/plant: grade 2 ([2]; oxyfluorfen 360 g ai/ha (2×)) | The grade of pesticide damage/plant: grade 3 ([2]; oxyfluorfen 360 g ai/ha (2×)) | The grade of pesticide damage/plant: grade 1 ([2]; oxyfluorfen 720 g ai/ha (4×)) | The grade of pesticide damage/plant: grade 2 ([2]; oxyfluorfen 720 g ai/ha (4×)) | The grade of pesticide damage/plant: grade 3 ([2]; oxyfluorfen 720 g ai/ha (4×)) | The grade of pesticide damage/plant: grade 1 ([3]; flumioxazin 120 g ai/ha (2×)) | The grade of pesticide damage/plant: grade 2 ([3]; flumioxazin 120 g ai/ha (2×)) | The grade of pesticide damage/plant: grade 3 ([3]; flumioxazin 120 g ai/ha (2×)) | The grade of pesticide damage/plant: grade 1 ([3]; flumioxazin 240 g ai/ha (4×)) | The grade of pesticide damage/plant: grade 2 ([3]; flumioxazin 240 g ai/ha (4×)) | The grade of pesticide damage/plant: grade 3 ([3]; flumioxazin 240 g ai/ha (4×)) | The grade of pesticide damage/plant: grade 1 ([5]; oxyfluorfen 180 g ai/ha (1×)) | The grade of pesticide damage/plant: grade 2 ([5]; oxyfluorfen 180 g ai/ha (1×)) | The grade of pesticide damage/plant: grade 3 ([5]; oxyfluorfen 180 g ai/ha (1×)) | The grade of pesticide damage/plant: grade 2 ([5]; oxyfluorfen 720 g ai/ha (4×)) | The grade of pesticide damage/plant: grade 3 ([5]; oxyfluorfen 720 g ai/ha (4×)) | The grade of pesticide damage/plant: grade 1 ([6]; saflufenacil 50 g ai/ha (2×)) | The grade of pesticide damage/plant: grade 2 ([6]; saflufenacil 50 g ai/ha (2×)) | The grade of pesticide damage/plant: grade 3 ([6]; saflufenacil 50 g ai/ha (2×)) | The grade of pesticide damage/plant: grade 1 ([6]; saflufenacil 100 g ai/ha (4×)) | The grade of pesticide damage/plant: grade 2 ([6]; saflufenacil 100 g ai/ha (4×)) | The grade of pesticide damage/plant: grade 3 ([6]; saflufenacil 100 g ai/ha (4×)) | The grade of pesticide damage/plant: grade 1 ([7]; flumioxazin 60 g ai/ha (1×)) | The grade of pesticide damage/plant: grade 2 ([7]; flumioxazin 60 g ai/ha (1×)) | The grade of pesticide damage/plant: grade 3 ([7]; flumioxazin 60 g ai/ha (1×)) | The grade of pesticide damage/plant: grade 2 ([7]; flumioxazin 240 g ai/ha (4×)) | The grade of pesticide damage/plant: grade 3 ([7]; flumioxazin 240 g ai/ha (4×))
5 plant: The grade of pesticide damage/plant: grade 1 ([5]; oxyfluorfen 720 g ai/ha (4×))
high-resistant tolerance: tolerance to oxyfluorfen ([2]; oxyfluorfen at four-fold field concentration (720 g ai/ha)) | tolerance to oxyfluorfen ([2]; oxyfluorfen at two-fold field concentration (360 g ai/ha)) | tolerance to flumioxazin ([3]; soybean, flumioxazin at different concentrations (120 and 240 g ai/ha)) | tolerance to saflufenacil ([6]; soybean, saflufenacil at four-fold field concentration (100 g ai/ha))
19 plant: The grade of pesticide damage/plant: grade 0 ([5]; oxyfluorfen 720 g ai/ha (4×))
4: The grade of pesticide: grade 1 ([4]; sulfentrazone 900 g ai/ha (2×))
different extents of tolerance: tolerance to saflufenacil ([6]; soybean, saflufenacil, compared with the control vector and CK)
